Self-cleavage data for 167 variants are collected here from the RNAGym collection of RNA variant scans (doi:10.7554/elife.90254).

To fix the notation:
B1: OR4K15 (parent)
chain: GUUAACGGUCAUAGGCCAUGGAAACUAGGAGCACCAUUUCGCUGCCAGUGAAGAAAUGAACAAAGAAAAUCUGGGCCAGGCAGGCAUCAAAAGAAAUAGUCUUGCGCUCAACCAGAAAGUCUGUAAUCAUUUUAAGGGUA

This series covers variants of B1. Put plainly: self-cleavage, relative activity (ratio to wild type); higher = more cleavage; in vitro, sequencing; the parent is a self-cleaving ribozyme.
As to A94G A116U, the self-cleavage was 0.38.
For C81U U108C, the self-cleavage is 0.02.
A86U A135G: the self-cleavage was determined as 2.44.
The result for A36G U120A reads 2.61; that for A51U A56G, 0.93.
As for A110U A111G, the self-cleavage was determined as 0.01.
As for A62U G104A, the self-cleavage stood at 0.04.
In the case of A11G U12C, the self-cleavage stood at 1.07.
Consider G75U U102C, for which the self-cleavage came out at 0.12.
On to A24C U100C, for which the self-cleavage worked out at 1.84.
The result for U39C A66U reads 1.28; that for A55G G106A, 0.01; that for A11G U37C, 1.16.
A11U A78G: the self-cleavage was determined as 0.31.
A11C U97C: the self-cleavage was 1.26.
With U87C A116G, the self-cleavage is 0.55.
With G15U G136A, the self-cleavage amounted to 2.24.
A33C A51U: the self-cleavage stood at 2.27.
Regarding A96G A140G, the self-cleavage is 1.47.
A59U A114C: the self-cleavage turned out to be 0.03.
With A13G U130C, the self-cleavage came to 0.83.
As to A63G U70A, the self-cleavage is 1.47.
Take A56G C88U: the self-cleavage was found to be 1.72.
On to G21U U108A, for which the self-cleavage was determined as 0.02.
On to A60G A86U, for which the self-cleavage came to 1.44.
Regarding A24U U131A, the self-cleavage stood at 0.43.
Consider A23G A117C, for which the self-cleavage came out at 0.36.
For the variant U43A A94C, the self-cleavage amounted to 1.01.
C112U U132C: the self-cleavage was found to be 0.01.
The result for U2C A64U reads 1.3; that for C32U C105U, 0.18; that for A86U U102C, 2.39.
As for A111G A116G, the self-cleavage was found to be 0.01.
As for G14A G20A, the self-cleavage came out at 1.49.
For the variant U122A C128A, the self-cleavage came out at 1.32.
Regarding A92G A126C, the self-cleavage came out at 0.94.
For the variant U97A U133C, the self-cleavage was 2.13.
A22G G106A: the self-cleavage turned out to be 0.03.
The result for A60G C81U reads 0.21.
On to U2C A96G, for which the self-cleavage is 1.1.
With G106A, the self-cleavage was 0.01.
The result for U70C G74U reads 0.17; that for U87C C88A, 0.75; that for U70C A111U, 0.07.
Regarding G15C, the self-cleavage was determined as 1.05.
In the case of U9C G106U, the self-cleavage stood at 0.
For the variant A117G U120A, the self-cleavage stood at 2.78.
Take G20A U38C: the self-cleavage came to 1.72.
Consider A98U U131C, for which the self-cleavage came out at 2.12.
In the case of A52U A96G, the self-cleavage is 1.91.
A111G A126G: the self-cleavage was found to be 0.01.
The result for U3C A18U reads 0.78; that for U43C A63G, 1.8; that for U49C U70C, 0.59.
As to A60G A118G, the self-cleavage was found to be 1.07.
In the case of C121A U122C, the self-cleavage came out at 1.62.
In the case of A24U A62G, the self-cleavage came out at 2.33.
As for A47U A69U, the self-cleavage was determined as 1.22.
For U19C U127A, the self-cleavage was 2.17.
As to G73A A86G, the self-cleavage came to 0.05.
The result for A56C A62G reads 0.6; that for A24G A33C, 1.62.
Regarding U39A A114G, the self-cleavage is 0.77.
Take A59G C77U: the self-cleavage is 1.7.
As to U57A U130C, the self-cleavage worked out at 0.81.
The result for A55G U102C reads 1.75; that for U70C A116G, 1.52; that for A54G U120G, 2.09.
On to A47C U72A, for which the self-cleavage is 0.37.
With C10U C77U, the self-cleavage is 0.98.
Regarding U97G U127C, the self-cleavage is 0.49.
The result for U38A G104A reads 0; that for A52U A90U, 2.35.
Turning to G20A U49C, the self-cleavage turned out to be 1.6.
With U37C C128A, the self-cleavage was 0.17.
Take U120G U122C: the self-cleavage came out at 1.08.
As for A4G A59G, the self-cleavage was 1.04.
As to U2A C61U, the self-cleavage amounted to 0.71.
For A52G U70C, the self-cleavage was 0.79.
The result for U2C U37C reads 1.26.
The result for A24U A126G reads 1.15; that for A52G A114G, 0.28.
In the case of A56U U132C, the self-cleavage worked out at 1.11.
For the variant A66U A129G, the self-cleavage stood at 0.39.
As for U12A U130C, the self-cleavage turned out to be 1.21.
For the variant U43A A134G, the self-cleavage is 1.81.
Turning to U43A A63G, the self-cleavage amounted to 2.21.
Turning to U9C U38A, the self-cleavage was 1.98.
On to A11C U127C, for which the self-cleavage was found to be 0.83.
As for U57C A117G, the self-cleavage came out at 0.84.
G15A A68G: the self-cleavage amounted to 1.73.
Consider A24G A126U, for which the self-cleavage turned out to be 0.98.
Regarding C16A U57G, the self-cleavage turned out to be 0.88.
For U2A A24G, the self-cleavage came out at 0.54.
Consider C71U A129G, for which the self-cleavage was 0.08.
As to U9A U127A, the self-cleavage worked out at 0.66.
With U87C A110G, the self-cleavage was determined as 0.1.
In the case of G119A U139C, the self-cleavage was 2.96.
The result for C112A A129G reads 0.01; that for U72G A92G, 0.42.
The result for A52G A62G reads 1.19; that for U100C U122C, 1.66; that for A55U A56G, 1.38.
The result for U87C C112U reads 0.02.
On to A62C A63G, for which the self-cleavage stood at 1.55.
The result for A33G A51U reads 0.82.
In the case of U2G U39C, the self-cleavage worked out at 2.03.
G14A A30G: the self-cleavage is 2.84.
For the variant C113U A129G, the self-cleavage is 0.01.
C45U G48A: the self-cleavage was 1.78.
The result for A111G U131C reads 0.01.
Take U43C G58U: the self-cleavage was found to be 0.07.
The result for U43C A68G reads 1.21.
In the case of U43C A94U, the self-cleavage is 1.77.
The result for A30G U43C reads 1.39.
For the variant C25U A94U, the self-cleavage stood at 1.62.
A22U A47G: the self-cleavage amounted to 1.13.
For A52G G83A, the self-cleavage was 1.07.
The result for A95G A126G reads 1.12.
In the case of G21C A118G, the self-cleavage came out at 1.14.
On to A47U A98C, for which the self-cleavage was determined as 1.44.
Regarding C17A U19C, the self-cleavage turned out to be 0.87.
Take C34U A118G: the self-cleavage was determined as 1.49.
With G115A, the self-cleavage is 0.12.
For the variant U87C A98U, the self-cleavage was found to be 1.9.
Consider A86U U103C, for which the self-cleavage came out at 1.31.
In the case of A5U U131C, the self-cleavage was found to be 1.52.
U38A U132C: the self-cleavage was 1.58.
As to A27G A111U, the self-cleavage was 0.04.
The result for A56U A68G reads 0.34; that for A78C A98U, 0.58; that for A13G U87A, 0.92.
For U2C G74U, the self-cleavage worked out at 0.08.
The result for G21C A78G reads 0.27.
For C101U G106A, the self-cleavage amounted to 0.
A89G A125G: the self-cleavage was determined as 0.16.
A47G U122A: the self-cleavage amounted to 1.11.
Take U49A U131G: the self-cleavage was 1.06.
In the case of U26C A47G, the self-cleavage worked out at 1.24.
In the case of U2C C76A, the self-cleavage was determined as 0.1.
The result for A67G U122C reads 0.99; that for A30U A62G, 1.16.
With U38C A114U, the self-cleavage turned out to be 0.15.
As to U2G U3C, the self-cleavage was determined as 1.11.
Consider G119U U132C, for which the self-cleavage came out at 1.41.
Regarding A67G C77A, the self-cleavage was found to be 0.71.
Take U19C A24G: the self-cleavage was 1.28.
Consider A51U A59U, for which the self-cleavage stood at 0.5.
As for A51G A134G, the self-cleavage was 1.55.
The result for U87G A95G reads 1.11.
The result for A118G reads 0.89.
On to A64U U87G, for which the self-cleavage was 0.62.
A33G A52G: the self-cleavage came out at 0.91.
U124C G138C: the self-cleavage was 1.31.
For the variant A36G A95G, the self-cleavage was determined as 2.04.
The result for G48C A55G reads 1.64; that for A18G G50A, 0.74.
Regarding A11U A94G, the self-cleavage is 0.71.
A4G A117U: the self-cleavage came to 0.81.
G20U C77A: the self-cleavage came to 0.73.
On to U2C G84A, for which the self-cleavage is 1.46.
Consider U72C A94C, for which the self-cleavage came to 0.1.
A63G A69G: the self-cleavage was found to be 1.04.
As for A23G U97G, the self-cleavage is 1.16.
As to U38C A56G, the self-cleavage is 1.5.
As to G115U A129U, the self-cleavage amounted to 0.03.
Consider A5G A59G, for which the self-cleavage was 0.99.
